± gives the standard error. Variants at the floor of the assay were thinned out.
B1: glmS ribozyme (parent)
chain: AUAAAAGCGCCAGAACUACAGAAAUGUAGUUGACGAGGAGGAGGUUUAUCGAAUUUUCGGCGGAUGCCUCCAAA

Variants of: B1
Test: self-cleavage kobs at 2500 uM GlcN6P; higher = faster cleavage; RNA array
Details: with glucosamine-6-phosphate
Outline: (§1)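 On sequenced MiSeq chips, barcoded ribozyme variants were made in situ by E. coli RNA polymerase and followed at 37 °C through a hybridised Cy3 probe. Glucosamine-6-phosphate was flowed in at 40 μM to 10 mM in HEPES/KCl/Mg(OAc)2 buffer. Exponential fits to normalised per-tile medians gave kobs, and weighted Michaelis–Menten fits gave kcat and KM.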

Row | Variant | self-cleavage kobs at 2500 uM GlcN6P [s⁻¹]
1 | AUAAAAGCGCCAGAUGUACAGAAAUGUAGAUGGCGAGGAGGAGGUUUAUCGAAUUUUCAGCGGAUGCCUCCAAA | < 1e-05
2 | AUAAAAGCGCCAGAACUACAGAAAUGUAGUUGACGAGCAGUAGGUUUAUCGACUUUUCGGCGGAUGCGUCCAAA | < 1e-05
3 | AUAAAAGCGCCAGAGCUACAGAAAUGUAGUUGAAGAGGAGGAGGUUUAUCGAAUUUUCGGCGAAUGCCUCCAAA | < 1e-05
4 | AUAAAAGCGUCAGAACUACAGAAAUGUAGUUGUCGAGGAGUAGGUUUACCGAAUUUUCGGCCGAUGCCUCCAAA | < 1e-05
5 | AUAAAAGCGCCAGGACUACAGAAAUGUAGUUGACGAGGAGGACGUUUAUCGAAUUUCCGGCGGAUGCCUCCAAA | < 1e-05
6 | AUAAAAGCGCCAGAACUACAGAAAUGUAGUUGACGAUGAGGAGGUUUAGCGAAUUUCCGGCGGAUGCCUCCAAA | < 1e-05
7 | AUAAAAGCGCCACAACUACAGAAAUGUAGUUGACGAGGAGAAGGUUUAUCGAAUUUUCGGCCGAUGCCUCCAAA | < 1e-05
8 | AUAAAAGUGCCUGAACUACAGAAAUGUAGUUGAAGAGGAGGAGGUUUAUCGAAUUUUCGGCGGAUGCCUCCAAA | < 1e-05
9 | AUAAAAGCGCCAGAAAUACAGAAAUGUAGUUGAAGAGGAGGAGGUUUAUCGAAUUUUCGGCGGAUGCCUUCAAA | < 1e-05
10 | AUAAAAGCGCCAGAACUACAGAAAUGUAGUUGACGAGGAGGAAGUUGAUCGAAUUUUCGGGGGAUGCCUCCAAA | < 1e-05
11 | AUAAAGGCGCGAGAACUACAGAAAUGUAGUUGACGAGGAGGAGGAUUAUAGAAUUUUCGGCGGAUGCCUCCAAA | < 1e-05
12 | AUAAAAGCGCCAGAACUACAGAAAUGUAGUUUACGAGGAGGAGGUUUUUCGAAUUUUCGGCGGAUGUCUCCAAA | < 1e-05
13 | AUAAAAGCGCCGGAUCUACAGAAAUGUAGUUGACGAUGAGGGGGUUUAUCGAAUAUUCGGCGGAUGCCUCCAAA | < 1e-05
14 | AUAAAAGCGCCAGAACUACAGAAAUGUACUUGACGAGGAGGAGGUUUAUCGAAUUUUCGGGAGAUGCCUGCAAA | 0.000307 ± 0.00012
15 | AUAAAAGCGCCAGAACUACAGAAAUGUAGUUGGCGAGGAGGAGUUUUAUCGAAUUUUCGGCGUAUGCCUCCAAA | < 1e-05
16 | AUAAAAGUGCCAGAACUACAGAAAUGUAGUUGACGAUGAGGAGGUUUAUCGAAUUUUCGGCUGUUGCCUCCAAA | < 1e-05
17 | AUAAAAGCGCCAGAAAUACAGAAAUGUAGUUGACGAUGAGGAGGUUUAUCGAAUUUUCGGGGGAUGCCGCCAAA | 5.77e-05 ± 1.7e-05
18 | AUAAACGCGCCAGCUCUACAGAAAUGUAGUUGACGAGGAGGGGGUUUAUCGAAUUUUCGGCGGAUGCCUCCAAA | < 1e-05

Row | Variant | self-cleavage kobs at 2500 uM GlcN6P [s⁻¹]
19 | AUAAAAGCGCCAGAACUACAGAAAUGUAGUUGACGAAGAAGAGGUUUAUCGAAUUGUCGGCGGAUGCCUCCAAA | 5.62e-05 ± 1.8e-05
20 | AUAAAAGCGCCCGAACUACAGAAAUGUAGUUGACGAUUAGGAGGUUUAUCGAAUUUUCGGCGGAUGCCUCCAAA | < 1e-05
21 | AUAAAAGCGCCAGAACUACAGAAAUGUAGUUUACGAGGAGCAGGUUUAUCGAAUUUUCAGCGGAUGCCUCCAAA | < 1e-05
22 | AUAAAAGCGCCCGAACUACAGAAAUGUAGUUGACGAGGAGGAGGUCUAUCGAAUUUUCGGCGGAUGCCUACAAA | 3.42e-05 ± 1.2e-05
23 | AUAAAAGCGCCAGAACUACAGAAAUGUAGUUGAUGAGGAGGAGGUUGAUCUAAUUUUCGGCGGAUGCCUCCAAA | < 1e-05
24 | AUAAAAGCGCCAGAUCUACAGAAAUGUACUUGACGAGGAGGAGGUUUAUUGAAUUUUCGGCGGAUGCCUCCAAA | < 1e-05
25 | AUAAAAGCGCAAGGACUACAGAAAUGUAUUUGACGAGGAGGAGGUUUAUCGAAUUUUCGGCGGAUGCCUCCAAA | 5.93e-05 ± 2.7e-05
26 | AUAAAAGCGCCAGAACUACAGAAAUGUAGUUGAUGAGGAACAGGUUUCUCGGAUUUUCGGCGGAUGCCUCCAAA | < 1e-05
27 | AUAAAAGCGCCAGAACUACAGAAAUGUAGUUGCCAAGGAGGAGGUUUAUCGAAUUAUCGGCGGAUGCCUCCAAA | < 1e-05
28 | AUAAAAGCGCUAGAACUACAGAAAUGUAGUUGUCGAGGAGGAGGUUUAUCGAAUUUUCAGCGGAUGCCUCCAAA | 0.000169 ± 6.1e-05
29 | AUAAAAGUGCCUGAACUACAGAAAUGUAGUUGACGAGGAGGAGGUUUUUCGAAUUUUCGGCCGAAGCCUCCAAA | < 1e-05
30 | AUAAAAGCGCUAGAACUACAGAAAUGUAGUUGACGAGGAGGAGGUUUAUCGAAUUUUCGACUGAUGGCUCCAAA | < 1e-05
31 | AUAAAAGCGACAGAACUACAGAAAUGUAGUUGACGAGGAGGAGGUUUAUCGAAUUUUCGCCGCAUGAGUGUAAA | 4.85e-05 ± 2.2e-05
32 | AUAAAAGGGCCAGAACUACAGAAAUGUAGUUGACGCGGAGGAGGUUUAUCGACUUUUCGGCGGAUGCCUCCAAA | < 1e-05
33 | AUAAAAGCGCCAGAACUACAGAAAUGUAGUUGACGAGCAGGAGGUUCAACGAAUUUUCGGCGGAUGCCUCCAAA | < 1e-05
34 | AUAAAAGAGCCUGAACUACAGAAAUGUAGUUGACGAGGAGGAGUUUUAUCGAAUUUUCGGCGGAUGCCUCCAAA | < 1e-05
35 | AUAAAAGCGCCAGAACUACAGAAAUGUAGUUGAUGAGGAGGAGGUUUAUUGAAUUUUCGGCGGAUGCCUCCAAA | < 1e-05

Variants of: B1
Test: self-cleavage kobs at 10000 uM GlcN6P; higher = faster cleavage; RNA array
Details: with glucosamine-6-phosphate
Outline: as §1

Row | Variant | self-cleavage kobs at 10000 uM GlcN6P [s⁻¹]
36 | AUAAAAGCGCUAGAACUACAGAAAUGUAGUUGUCGAGGAGGAGGUUUAUCGAAUUUUCAGCGGAUGCCUCCAAA | 0.000262 ± 5.4e-05
37 | AUAAAAGGGCCAGAACUACAGAAAUGUAGUUGACGCGGAGGAGGUUUAUCGACUUUUCGGCGGAUGCCUCCAAA | < 1e-05
